Positions count from the first letter of the chain named.

The results in this text go back to patent US20210347908A1 (ELPISCIENCE SUZHOU BIOPHARMA, published 2021).

The chains are these.
T1: full length C57BL/6 mouse SIRPα stably expressed on CHOK1 cells (mouse (C57BL/6), UniProt P97797 32-513)
T1 construct: whole, on cells; also called CHOK1-C57BL/6 mouse SIRPα-2.22 cells
T1 sequence (looked up): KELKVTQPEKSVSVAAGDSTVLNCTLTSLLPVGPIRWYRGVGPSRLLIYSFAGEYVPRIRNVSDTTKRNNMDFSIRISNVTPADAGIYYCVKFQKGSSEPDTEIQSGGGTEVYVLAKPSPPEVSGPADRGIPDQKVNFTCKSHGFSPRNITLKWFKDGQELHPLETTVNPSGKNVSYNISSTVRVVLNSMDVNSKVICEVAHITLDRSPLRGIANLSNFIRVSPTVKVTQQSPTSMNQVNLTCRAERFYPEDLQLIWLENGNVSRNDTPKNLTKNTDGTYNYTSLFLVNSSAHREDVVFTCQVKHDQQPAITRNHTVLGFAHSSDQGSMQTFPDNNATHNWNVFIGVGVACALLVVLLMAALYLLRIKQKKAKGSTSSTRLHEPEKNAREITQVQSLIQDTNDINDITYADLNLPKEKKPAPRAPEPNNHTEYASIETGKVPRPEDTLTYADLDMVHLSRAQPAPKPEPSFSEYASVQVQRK

B1: Antibody 074 (hybridoma antibody) (antibody, V domains shown)
VH: QVQLQQPRAELVKPGASVMLSCKASGYTFSSYWIHWVRQGPGQGLEWIGLIHPNSGNTDCSETFKNKATLTVDTSSSTAYMQLSSLASEDSAVYYCARDGASYDWFVHWGQGTLVTVSA
VL: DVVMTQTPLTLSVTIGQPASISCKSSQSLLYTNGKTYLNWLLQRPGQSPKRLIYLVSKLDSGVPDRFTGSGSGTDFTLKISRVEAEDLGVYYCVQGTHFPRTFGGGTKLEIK
notes: mouse hybridoma antibody
B2: Antibody 050 (hybridoma antibody) (antibody, V domains shown)
VH: QIQLVQSGPELKKPGETVKISCKASGYTFTHYSMHWVKQAPGKGLKWMGWINTETAEPTYVDDFKGRFAFSLEASASTAFFQINNLKNEDTATYFCARGGLRQGDYWGQGTTLTVSS
VL: QIVLTQSPPIMSASPGEKVTLTCSATSSVSASYLYWFQQKPGSSPKLWIYSTSNLASGVPARFSGSGSGTSYSLTISNMEPADAASYFCHQWSSYPYTFGGGTKLEIK
notes: mouse hybridoma antibody
B3: Antibody 060 (hybridoma antibody) (antibody, V domains shown)
VH: QVQLKESGPGLVAPSESLSITCTVSGFSLTNYDISWIRQSPGKGLEWLGVIWTGGDTNFNSAFMSRLSISKDKSKSQVFLKLNSLQTDDTAIYYCVRVQYFGGSYGPMDYWGQGISVTVSS
VL: DIQMTQASSYLSVSLGGRVTITCEASDHINDWLAWYQQTPGNAPRLLISGATSLETGVPSRFSGSGSGKDYTLSITSLQTEDIATYYCQQYWNTPLTFGAGTRLELK
notes: mouse hybridoma antibody
B4: Antibody 022 (hybridoma antibody) (antibody, V domains shown)
VH: QIQLVQSGPELKKPGETVKISCKASGYTFTDYAMHWVKQAPGKGLKWMGWKNTETGESTYAEDFKGRFAFFLETSASTAYLQINNVKNEDTATYFCARGGYGSNYVMDYWGQGTSVIVSS
VL: DIQMTQSSSSFSVSLGDRVTITCKASEDIYNRLAWYQQKPGNAPRLLISGATSLETGVPSRFSGSGSGKDYTLSITSLQTEDVATYYCQQYWNSPRTFGGGTKLEIK
notes: mouse hybridoma antibody
B5: Antibody 001 (hybridoma antibody) (antibody, V domains shown)
VH: EVKLEESGGGLVQPGGSMKLSCVASGFTFRNYWMNWVRQSPERGLEWIAEISLKSNTYATHYAESVKGRFAISRDGSKSSFYLQMNDLRAEDTGIYYCTTFTKVVADWHLDVWGAGTTVTVSS
VL: DVLMTQTPLSLPVSLGDQASISCRSSQNIVHSNGNTYLEWYLQKPGQSPKLLIYKVSNRFSGVPDRFSGSGSGTDFTLRISRVEAEDLGVYYCFQGSHVPFTFGSGTKLEIK
notes: mouse hybridoma antibody
B6: Antibody 002 (hybridoma antibody) (antibody, V domains shown)
VH: B5 VH with K19I, S52T, G76D, A90P
VL: B5 VL with V56I, K112Q
notes: mouse hybridoma antibody
B7: Antibody 032 (hybridoma antibody) (antibody, V domains shown)
VH: B5 VH with K3R, A24V, S52T, G76D, A90P
VL: B5 VL with S14N
notes: mouse hybridoma antibody
B8: Antibody 035 (hybridoma antibody) (antibody, V domains shown)
VH: QIQLVQSGPELRKPGETVKISCKASGYSFTNYAMNWVKQAPGKVLKWMGFINTYTGEPTYADDFKGRFAFSLETSASTAYLQINNLKNEDTATYFCTRTRGYYDFDGGAFDYWGQGTSLTVSS
VL: DIVMTQSQKFMSTSIGDRVSVTCKASQNVGTHLAWYQQKPGQSPKALIFSASYRYIGVPDRFTGSGSGTDFTLTITNVQSEDLAEYFCQQYNTYPLTFGAGTKLELK
notes: mouse hybridoma antibody
B9: chimeric antibody 001c (antibody, V domains shown)
VH: B5 VH
VL: B5 VL
B10: chimeric antibody 002c (antibody, V domains shown)
VH: B5 VH with K19I, S52T, G76D, A90P
VL: B5 VL with V56I, K112Q

One experiment deals with T2, biotin labeled soluble human SIRPα v1 ECD recombinant protein (human, UniProt P78324 31-373, biotin labeled).
T2 construct: extracellular domain
T2 sequence (P78324 31-373): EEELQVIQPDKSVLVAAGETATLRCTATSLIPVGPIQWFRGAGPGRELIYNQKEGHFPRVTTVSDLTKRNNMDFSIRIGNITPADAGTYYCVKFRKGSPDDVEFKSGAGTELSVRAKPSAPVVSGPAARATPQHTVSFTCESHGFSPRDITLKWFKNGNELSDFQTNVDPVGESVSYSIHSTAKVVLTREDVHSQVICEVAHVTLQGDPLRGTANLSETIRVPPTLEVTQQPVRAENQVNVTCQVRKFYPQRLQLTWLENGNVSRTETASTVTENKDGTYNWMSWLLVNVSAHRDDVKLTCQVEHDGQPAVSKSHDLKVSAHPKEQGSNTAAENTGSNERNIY
Kind of experiment: competitive ELISA; competitor 001. As to the method: (§1) Competitive ELISA assay was used for epitope binning of 9 functional antibodies. Briefly excessive competitor antibody and biotin labeled soluble human SIRPα v1 ECD recombinant protein were co-incubated with ELISA microplate coated antibody. After washing, HRP-SA was added and incubated at 37° C. for 1 hour. Then, […] of TMB solution (Biotechnology) was added. After incubation for 15 minutes at room temperature, the reaction was stopped by the addition of […] of 1N HCl. OD 450 nm was read. Competition ratio was calculated. The antibodies that can compete each other for binding to SIRPα have the similar binding epitope.
Regarding B1, the “% Competition” value came out at 33%.
The same measure, in the same setting: the same measure for B2: 2%; for B3: 0%.
On to B4, for which the “% Competition” value amounted to 2%.
Same read-out and setting: next, B5: 96%.
Same read-out and setting: the same measure for B6: 94%.
B7: the “% Competition” value came to 94%.
For the molecule B8, the “% Competition” value was 92%.

The target of another experiment is T3, full length human SIRPα v1 stably expressed on CHOK1 cells (human, UniProt P78324 31-504).
T3 construct: whole, on cells; also called CHOK1-human SIRPα v1-1B4 cells; CHOK1-human SIRPα v1
T3 sequence (P78324 31-504): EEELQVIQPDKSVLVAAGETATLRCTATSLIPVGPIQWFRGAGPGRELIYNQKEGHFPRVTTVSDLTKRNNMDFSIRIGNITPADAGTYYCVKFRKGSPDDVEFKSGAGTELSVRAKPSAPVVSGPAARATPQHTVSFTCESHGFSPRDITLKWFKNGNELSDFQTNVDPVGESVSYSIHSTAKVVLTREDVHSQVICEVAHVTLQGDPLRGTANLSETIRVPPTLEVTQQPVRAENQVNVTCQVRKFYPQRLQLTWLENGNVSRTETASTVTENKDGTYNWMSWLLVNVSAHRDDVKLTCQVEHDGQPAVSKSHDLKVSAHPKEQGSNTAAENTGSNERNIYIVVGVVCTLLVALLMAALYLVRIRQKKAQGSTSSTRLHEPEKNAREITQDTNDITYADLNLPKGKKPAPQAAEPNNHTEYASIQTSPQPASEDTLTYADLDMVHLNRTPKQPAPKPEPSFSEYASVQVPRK
Kind of experiment: FACS on CHOK1 cells. As to the method: Species cross reactivity of the purified hybridoma antibodies against human, cyno and mouse SIRPα was determined by FACS assay using CHOK1-human SIRPα v1-1B4 cells, CHOK1-cyno SIRPα-2A2 cells, and CHOK1-C57BL/6 mouse SIRPα-2.22 cells, which stably expressing SIRPα protein. Briefly the antibodies were incubated with 2×10⁵ target cells at 4° C. for 1 hour. After washing, fluorescence labeled anti-mouse or anti-human IgG 2nd antibody (Life Technologies) was added and incubated at 4° C. for 1 hour. Geometric median fluorescence intensity was detected and EC₅₀ was calculated. In particular, it is noted, in contrast to the other antibodies tested in the same experiment, 060 cannot bind with cyno SIRPα and 035 has cross reactivity against C57BL/6 mouse SIRPα. […]
For B9, the response was half-maximal at 1.7 nM (EC50).
The same measure, in the same setting: next, B10: 2.4 nM.

The target of another experiment is T4, Fc tagged human SIRPα v1 ECD recombinant protein (human, UniProt P78324 31-370).
T4 construct: range 1-370; cloned range M1-R370 includes the signal peptide; also called hSIRPα V1; not shown: human IgG Fc region (hFc) of the pCPC vector
T4 sequence (P78324 31-370 limits assumed): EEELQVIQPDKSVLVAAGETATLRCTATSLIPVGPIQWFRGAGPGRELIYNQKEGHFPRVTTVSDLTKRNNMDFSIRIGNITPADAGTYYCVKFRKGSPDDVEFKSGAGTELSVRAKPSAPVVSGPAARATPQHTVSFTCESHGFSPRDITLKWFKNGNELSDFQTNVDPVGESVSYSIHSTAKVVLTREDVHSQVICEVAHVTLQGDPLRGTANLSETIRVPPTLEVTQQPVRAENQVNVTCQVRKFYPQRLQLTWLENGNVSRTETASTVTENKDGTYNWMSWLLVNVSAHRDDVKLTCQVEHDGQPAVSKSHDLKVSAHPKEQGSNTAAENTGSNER
Nature of the experiment: ELISA. Here is the method: (§2) Binding specificity of the purified hybridoma antibodies against SIRP family members was detected by ELISA assay using recombinant proteins of Fc tagged human SIRPα v1 ECD, human SIRPα v2 ECD, human SIRPβ ECD and human SIRPγ ECD. Briefly the antibodies were incubated with ELISA microplate coated antigens at 37° C. for 1 hour. After washing, horseradish peroxidase (HRP) labeled anti-mouse or anti-human IgG 2nd Ab (Sigma) was added and incubated at 37° C. for 1 hour. Then, 100 μl/well of TMB solution (Biotechnology) was added. After incubation for 15 minutes at room temperature, the reaction was stopped by the addition of 50 μl of 1N HCl. OD 450 nm was read and EC₅₀ was calculated. Other than 060 and HEFLB, all of the antibodies as tested can bind with both human SIRPα v1 and SIRPα v2. 060 and HEFLB can bind with human SIRPα v1 but not v2. Other than 055, all of the antibodies as tested can bind with human SIRPβ. In comparison with other known anti-SIRPα antibodies, only 022, 035 and 050 can bind with human SIRPγ weakly.
Consider B1, for which the EC50 was 0.02 nM.
The same measure, in the same setting: next, B2: 0.08 nM.
For B3, the EC50 was determined as 0.03 nM.
Still for that read-out and setting: the same measure for B4: 0.04 nM; for B5: 0.07 nM; for B6: 0.11 nM.
Still for that read-out and setting: the same measure for B7: 0.03 nM.
Still for that read-out and setting: the same measure for B8: 0.03 nM.

For the next experiment, the target named is T4, Fc tagged human SIRPα v1 ECD …. Nature of the experiment: ELISA. The source holds these as a separate data set. As to the method: as §2
(§3) The purified chimeric antibodies were applied for binding specificity analysis and species cross reactivity analysis (refer to methods described in Example 3.3 and 3.4). FIGS. 1A to 1D show binding specificity of anti-SIRPα chimeric antibodies against recombinant proteins of human SIRPα v1 ECD (A), human SIRPα v2 ECD (B), human SIRPβ ECD (C) and human SIRPγ ECD (D) as measured by ELISA analysis.
For the molecule B9, the EC50 was determined as 0.12 nM.
On the same count and under the same terms, next, B10: 0.06 nM.

In the next experiment the target is T3, full length human SIRPα v1 stably …. Kind of experiment: FACS on CHOK1 cells. The source holds these as a separate data set.
Turning to B1, the response was half-maximal at 1 nM (EC50).
Same read-out and setting: the same measure for B2: 1.3 nM; for B3: 0.9 nM; for B4: 2.1 nM.
For the molecule B5, the EC50 came to 1 nM.
B6 came in with an EC50 of 1 nM.
Still for that read-out and setting: the same measure for B7: 0.4 nM; for B8: 0.7 nM.

For the next experiment, the target named is T2, biotin labeled soluble human SIRPα v1 …. Nature of the experiment: competitive ELISA; competitor 002. Here is the method:
as §1
For the molecule B1, the “% Competition” value worked out at 14%.
On the same count and under the same terms, next, B2: 3%.
Same read-out and setting: the same measure for B3: 1%; for B4: 6%; for B5: 95%.
On to B6, for which the “% Competition” value worked out at 90%.
Same read-out and setting: the same measure for B7: 93%; for B8: 86%.

The target of the next experiment is T1, full length C57BL/6 mouse SIRPα stably …. Kind of experiment: FACS on CHOK1 cells. As to the method:
(§4) Species cross reactivity of the purified hybridoma antibodies against human, cyno and mouse SIRPα was determined by FACS assay using CHOK1-human SIRPα v1-1B4 cells, CHOK1-cyno SIRPα-2A2 cells, and CHOK1-C57BL/6 mouse SIRPα-2.22 cells, which stably expressing SIRPα protein. Briefly the antibodies were incubated with 2×10⁵ target cells at 4° C. for 1 hour. After washing, fluorescence labeled anti-mouse or anti-human IgG 2nd antibody (Life Technologies) was added and incubated at 4° C. for 1 hour. Geometric median fluorescence intensity was detected and EC₅₀ was calculated. In particular, it is noted, in contrast to the other antibodies tested in the same experiment, 060 cannot bind with cyno SIRPα and 035 has cross reactivity against C57BL/6 mouse SIRPα.
as §3
With B9, the binding result is reported as “no binding (tested: 10 nM)”.
On the same count and under the same terms, the same measure for B10: “no binding (tested: 10 nM)”.

The next experiment addresses T3, full length human SIRPα v1 stably …. Kind of experiment: FACS on CHOK1 cells. This is another data set of the same source. As to the method:
as §4, §3
B9 came in with an EC50 of 1.7 nM.
On the same count and under the same terms, the same measure for B10: 2.4 nM.

In the next experiment the target is T4, Fc tagged human SIRPα v1 ECD …. Nature of the experiment: ELISA. This is another data set of the same source. Here is the method: as §2, §3
Regarding B9, the EC50 was 0.12 nM.
As to B10, the EC50 was 0.06 nM.

Another experiment concerns the target T2, biotin labeled soluble human SIRPα v1 …. Kind of experiment: competitive ELISA; competitor 035. As to the method: as §1
B1: the “% Competition” value was 10%.
The same measure, in the same setting: next, B2: -4%; B3: 3%; B4: 0%.
With B5, the “% Competition” value is 96%.
The same measure, in the same setting: next, B6: 93%; B7: 91%.
Same read-out and setting: the same measure for B8: 93%.
